# According to article PMC7875971, “Cavin1 intrinsically disordered domains are essential for fuzzy electrostatic interactions and caveola formation” (Nature Communications, 2021):
# B1: His-ubiquitin- and GFP-tagged full-length Cavin1 (recombinant GFP-Cavin1) (natural protein, mouse, UniProt O54724 1-392, looked up)
# chain: MEDVTLHIVERPYSGFPDASSEGPEPTQGEARATEEPSGTGSDELIKSDQVNGVLVLSLLDKIIGAVDQIQLTQAQLEERQAEMEGAVQSIQGELSKLGKAHATTSNTVSKLLEKVRKVSVNVKTVRGSLERQAGQIKKLEVNEAELLRRRNFKVMIYQDEVKLPAKLSVSKSLKESEALPEKEGDELGEGERPEDDTAAIELSSDEAVEVEEVIEESRAERIKRSGLRRVDDFKKAFSKEKMEKTKVRTRENLEKTRLKTKENLEKTRHTLEKRMNKLGTRLVPVERREKLKTSRDKLRKSFTPDHVVYARSKTAVYKVPPFTFHVKKIREGEVEVLKATEMVEVGPEDDEVGAERGEATDLLRGSSPDVHTLLEITEESDAVLVDKSDSD
# notes: Cavin1, mouse, residues 1-392; also called purified recombinant GFP-Cavin1; source: E. coli Rosetta 2 (DE3), purified (TALON, Superose 6 SEC); not shown: His6-ubiquitin, N-terminal, kept; GFP, C-terminal, kept
# Biological target: the molecule itself
# Assay: fluorescence correlation spectroscopy (FCS); purified ubiquitin- and GFP-tagged proteins at 0.1 µM in 20 mM HepesKOH pH 7.6 with 150 mM NaCl, compared with 500 mM NaCl; diffusivity as read-out of self-association
protein,measurement,value
B1,binding result,binds
